B1: Mannan-binding lectin serine protease 2 (Homo sapiens), O00187-2 (parent)
chain: MRLLTLLGLLCGSVATPLGPKWPEPVFGRLASPGFPGEYANDQERRWTLTAPPGYRLRLYFTHFDLELSHLCEYDFVKLSSGAKVLATLCGQESTDTERAPGKDTFYSLGSSLDITFRSDYSNEKPFTGFEAFYAAEDIDECQVAPGEAPTCDHHCHNHLGGFYCSCRAGYVLHRNKRTCSEQSL

Key:
mbl2_human MBL2, P11226 = variants of: B1; details: with mbl2_human MBL2, P11226
fcn2_human FCN2, Q15485 = variants of: B1; details: with fcn2_human FCN2, Q15485
Sequence of fcn2_human FCN2, Q15485 (Q15485 whole entry): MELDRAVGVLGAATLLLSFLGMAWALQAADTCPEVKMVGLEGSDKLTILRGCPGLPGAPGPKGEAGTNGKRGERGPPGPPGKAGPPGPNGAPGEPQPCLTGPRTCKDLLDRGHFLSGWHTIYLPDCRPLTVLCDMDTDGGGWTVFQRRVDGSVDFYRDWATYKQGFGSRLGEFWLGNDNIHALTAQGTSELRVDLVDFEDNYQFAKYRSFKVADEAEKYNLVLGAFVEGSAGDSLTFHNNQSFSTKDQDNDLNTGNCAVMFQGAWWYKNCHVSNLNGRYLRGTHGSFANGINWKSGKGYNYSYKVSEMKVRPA

Sequence of mbl2_human MBL2, P11226 (P11226 whole entry): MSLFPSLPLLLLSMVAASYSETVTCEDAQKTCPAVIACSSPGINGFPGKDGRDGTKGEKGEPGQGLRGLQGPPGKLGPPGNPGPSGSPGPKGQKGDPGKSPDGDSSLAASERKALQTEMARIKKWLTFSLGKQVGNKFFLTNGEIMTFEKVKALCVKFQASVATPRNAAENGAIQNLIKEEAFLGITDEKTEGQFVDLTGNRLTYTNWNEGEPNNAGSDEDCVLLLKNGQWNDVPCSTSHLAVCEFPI

For Y121A, the “effect of a mutation on the interaction” value (mbl2_human MBL2, P11226) was “disrupting interaction strength” and the “effect of a mutation on the interaction” value (fcn2_human FCN2, Q15485) was “disrupting interaction strength”.

With D120G the “effect of a mutation on the interaction” value (mbl2_human MBL2, P11226) was “disrupting interaction strength” and the “effect of a mutation on the interaction” value (fcn2_human FCN2, Q15485) was “disrupting interaction strength”.

For E124A, the “effect of a mutation on the interaction” value (mbl2_human MBL2, P11226) was “decreasing interaction strength” and the “effect of a mutation on the interaction” value (fcn2_human FCN2, Q15485) was “with no effect”.

With D75A the “effect of a mutation on the interaction” value (mbl2_human MBL2, P11226) was “decreasing interaction strength” and the “effect of a mutation on the interaction” value (fcn2_human FCN2, Q15485) was “decreasing interaction strength”.

For R56A, the “effect of a mutation on the interaction” value (mbl2_human MBL2, P11226) was “with no effect” and the “effect of a mutation on the interaction” value (fcn2_human FCN2, Q15485) was “with no effect”.

With E93Q the “effect of a mutation on the interaction” value (mbl2_human MBL2, P11226) was “with no effect” and the “effect of a mutation on the interaction” value (fcn2_human FCN2, Q15485) was “with no effect”.

For E148A, the “effect of a mutation on the interaction” value (mbl2_human MBL2, P11226) was “decreasing interaction strength” and the “effect of a mutation on the interaction” value (fcn2_human FCN2, Q15485) was “decreasing interaction strength”.

In the case of H70A, the “effect of a mutation on the interaction” value (mbl2_human MBL2, P11226) is reported as “with no effect” and the “effect of a mutation on the interaction” value (fcn2_human FCN2, Q15485) is reported as “with no effect”.

For Y74A, the “effect of a mutation on the interaction” value (mbl2_human MBL2, P11226) was “disrupting interaction strength” and the “effect of a mutation on the interaction” value (fcn2_human FCN2, Q15485) was “disrupting interaction strength”.

D96N was tested, and the “effect of a mutation on the interaction” value (mbl2_human MBL2, P11226) was “with no effect” and the “effect of a mutation on the interaction” value (fcn2_human FCN2, Q15485) was “with no effect”.

In the case of E98A, the “effect of a mutation on the interaction” value (mbl2_human MBL2, P11226) is reported as “decreasing interaction strength” and the “effect of a mutation on the interaction” value (fcn2_human FCN2, Q15485) is reported as “decreasing interaction strength”.

In the case of E73A, the “effect of a mutation on the interaction” value (mbl2_human MBL2, P11226) is reported as “with no effect” and the “effect of a mutation on the interaction” value (fcn2_human FCN2, Q15485) is reported as “with no effect”.

Source: IntAct's records for PubMed 15117939
